Article PMC9800568, “The permanently chaperone-active small heat shock protein Hsp17 from Caenorhabditis elegans exhibits topological separation of its N-terminal regions” (The Journal of Biological Chemistry, 2022)
Values belong to the molecule of their own block, whether it stands above or below them.

What was measured:
[1] = target: Hsp17 (small heat shock protein Hsp17 from Caenorhabditis elegans) (C. elegans) (UniProt Q20660); assay: cryo-EM structure; 2.5 mg/ml Hsp17, Titan Krios 300 kV, tetrahedral symmetry, pseudo-atomic model fitted
[2] = target: Hsp17 (small heat shock protein Hsp17 from Caenorhabditis elegans) (C. elegans) (UniProt Q20660); assay: SEC; SEC-HPLC, Superdex 200 Increase 10/300 GL, PBS, 0.5 ml/min, room temperature, 50 μl of 50 μM protein
[3] = target: the molecule itself; assay: as above

stoichiometry N [1]: 24 | stoichiometry N [2]: 24
Molecule: Hsp17 (small heat shock protein Hsp17 from Caenorhabditis elegans) (from UniProt Q20660 1-149) (natural protein)

B1: Hsp17ΔNTR (Hsp17 variant lacking the N-terminal region) (domain or fragment, C. elegans)
chain: MGDAIDVVNNDQEYNVSVDVSQFEPEELKVNIVDNQLIIEGKHNEKTDKYGQVERHFVRKYNLPTGVRPEQIKSELSNNGVLTVKYEKNQEQQPKSIPITIVPKRN
notes: Hsp17, C. elegans, from aa position 45 to the C-terminus (ACD and CTR); The full-length protein is modelled to residue 148; also called NTR-truncated variant; truncation variant; source: E. coli BL21 (DE3), tag-free, purified (Sepharose Q FF, Superdex 75 pg)
stoichiometry N [3]: 3.5 monomers
